Here are results for one molecule from publication PMC4417145.

The target of this data set is T1, HMGA2 (high-mobility-group protein AT-hook 2) (mammalian (species ), UniProt P52926 1-109).
T1 sequence: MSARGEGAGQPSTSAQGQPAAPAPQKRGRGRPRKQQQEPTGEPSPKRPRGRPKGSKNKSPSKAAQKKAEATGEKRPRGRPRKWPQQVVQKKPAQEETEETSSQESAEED
The data set is described as follows: PDI-ELISA.

B1: FL842/FL843 (SELEX1 duplex) (dsDNA)
DNA 1: CCCCCCATATTCGCGATTATTGCGC
DNA 2: GCGCAATAATCGCGAATATGGGGGG
Regarding B1, the binding result is on record as “binds”.
